Source: paper PMC7237784
Residue numbers refer to the chain shown, from its start.

Assays:
[1] = biological target: T1, AcFur SI H31A;H88A (Acidithiobacillus caldus MTH-04) (UniProt A0A060A2G1); assay: EMSA; details: EMSA: 0.4 nM DNA, 0/2/4/8 nM protein, 10 mM Tris-HCl pH 8.0, 100 mM NaCl, 1 mM MnCl2, room temperature, 30 min; 5% native PAGE in 0.5x TBE, EB stain
T1 sequence: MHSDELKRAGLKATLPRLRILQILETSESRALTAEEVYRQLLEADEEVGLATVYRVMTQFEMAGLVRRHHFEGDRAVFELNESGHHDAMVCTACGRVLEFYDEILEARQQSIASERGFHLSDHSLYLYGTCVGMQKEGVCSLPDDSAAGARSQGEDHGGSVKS

[2] = biological target: T2, AcFur SII E106A;H123A (Acidithiobacillus caldus MTH-04) (UniProt A0A060A2G1); assay: EMSA; details: EMSA: 0.4 nM DNA, 0/2/4/8 nM protein, 10 mM Tris-HCl pH 8.0, 100 mM NaCl, 1 mM MnCl2, room temperature, 30 min; 5% native PAGE in 0.5x TBE, EB stain
T2 sequence: T1 sequence with A31H, A88H, E106A, H123A

| Sequence | binding [1] | binding [2] |
| --- | --- | --- |
| GCGTAGGACGTCCTTGATAACTGCAACTAAGTTGCATATATTCCGCACGACCACTCCGCGCGTCCCTGGGGAGCTTGACCGGTAAGTCTATTTATTGAATGATAATGATTAGCATTTATATTATTTGGAGAGATTGTCCATGCGTCGTATACCCCTCTGTGCGCTGCTGAGCACCATGCTTGCTTCCAGC (double strand) [feoP promoter] | no binding | binds more weakly |
| TTCCACCTGCTCACCTGCGCGGGCCGAGCTCAGGCGGTGGGGGGAAAGGACTTGGGTCATGACGCTCACACTCCCAACGAGTTCGTGGGGACACTATATCATAATGGTAATCATTTGCAATATCAGCCCAAGGGAGGGCCGTCCCGGCGGACGCAGCCGCCGACGCTCAGTCCAGGTCGCCGTGCCTGGGTGTAAAACGC (double strand) [feoABC operator (feoA promoter)] | no binding | binds more weakly |
